Results: PMC10336096

Key:
[1] = target: CXC chemokine receptor 1 (CXCR1) (human) (UniProt P25024)
[2] = target: trapped dimer (CXCL8^R26C) (human); assay: native MS; nanoESI-MS under non-denaturing conditions, 200 mM ammonium acetate; 5‒20 μM protein (methods; 2–7 μM in the results for the wild type); monomer to dimer
[3] = target: wild-type CXCL8^1–72 (human); assay: as above

CXC chemokine receptor 1 (CXCR1) (human), sequence (P25024 whole entry): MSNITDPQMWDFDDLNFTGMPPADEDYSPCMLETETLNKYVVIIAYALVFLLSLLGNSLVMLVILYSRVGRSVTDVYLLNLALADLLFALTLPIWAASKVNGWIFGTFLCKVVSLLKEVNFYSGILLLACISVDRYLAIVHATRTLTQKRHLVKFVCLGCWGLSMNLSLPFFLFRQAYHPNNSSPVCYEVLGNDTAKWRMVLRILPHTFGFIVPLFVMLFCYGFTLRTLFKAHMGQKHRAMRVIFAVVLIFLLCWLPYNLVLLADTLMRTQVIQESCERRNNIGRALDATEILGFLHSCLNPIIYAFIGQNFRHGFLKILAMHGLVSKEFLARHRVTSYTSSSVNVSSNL

## trapped dimer (CXCL8^R26C) (ligand)
[1]
  NanoBiT Gi1 dissociation assay in HEK293A cells; fold higher concentration needed than the trapped monomer (CXCL8^1–65) to elicit a response from CXCR1: 32 fold
  NanoBiT Gi1 dissociation assay in HEK293A cells; fold higher concentration needed than the wild-type CXCL8 to elicit a response from CXCR1: 85 fold
[2]
  stoichiometry N: 2

## wild-type CXCL8^1–72 (ligand)
[3]
  stoichiometry N: 2
